Laboratory results taken from the supplement of paper PMC7877785.
± gives the uncertainty stated by the source.

Test: self-splicing fitness, log relative to wild type (ln ratio); higher = more splicing; Tetrahymena group I intron in knt gene, E. coli kanamycin selection, DiMSum; sequences stand for … in CUCUCU…GGAGGGAAAAGUUAUCAGGCAUGCACCUGGUAGCUAGUCUUUAAACCAAUAGAUUGCAUCGGUUUAAAAGGCAAGACCGUCAAAUUGCGGGAAAGGGGUCAACAGCCGUUCAGUACCAAGUCUCAGGGGAAACUUUGAGAUGGCCUUGCAAAGGGUAUGGUAAUAAGCUGACGGACAUGGUCCUAACCACGCAGCCAAGUCCUAAGUCAACAGAUCUUCUGUUGAUAUGGAUGCAGUUCACAGACUAAAUGUCGGUCGGGGAAGAUGUAUUCUUCUCAUAAGAUAUAGUCGGACCUCUCCUUAAUGGGAGCUAGCGGAUGAAGUGAUGCAACACUGGAGCCGCUGGGAACUAAUUUGUAUGCGAAAGUAUAUUGAUUAGUUUUGGAGUACUCGUGGUCG
Summary of the method: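 DiMSum derived fitness as the error-weighted combination of fold changes across replicates, kanamycin versus no kanamycin, normalised to wild type. E. coli BL21(DE3) held the library, which randomised all eight P1ex-region intron nucleotides within the knt kanamycin-resistance gene on pET-22b(+). Six replicate transformations grew overnight at 37°C or 30°C on LB agar with or without 25 μg/mL kanamycin, also containing 100 μg/mL carbenicillin, 50 μM IPTG and 0.2% rhamnose, and pooled colonies were amplicon-sequenced on an Illumina HiSeq 2500.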

Row | Sequence | self-splicing fitness (ln) (30 °C) | self-splicing fitness (ln) (37 °C)
1 | CAUAAGCAAUAUUACGGGCG | -0.054 ± 0.08 | 0.166 ± 0.092
2 | CAUAAGCAAUAUUACGGGCU | – | -2.73 ± 0.25
3 | CAUAAGCAAUAUUACGGGGU | -4.17 ± 0.19 | -2.46 ± 0.15
4 | CAUAAGCAAUAUUACGGUUC | -3.7 ± 0.17 | -3.08 ± 0.19
5 | CAUAAGCAAUAUUACGUCCU | -3.78 ± 0.27 | -3.15 ± 0.19
6 | CAUAAGCAAUAUUACGUGUG | -3.56 ± 0.15 | -2.94 ± 0.17
7 | CAUAAGCAAUAUUACGUUAG | -1.13 ± 0.083 | -0.61 ± 0.11
8 | CAUAAGCAAUAUUACGUUAU | -4.62 ± 0.3 | -2.58 ± 0.16
9 | CAUAAGCAAUAUUACGUUCC | -3.94 ± 0.32 | –
10 | CAUCAGCAAUAUUACGAAUA | -1.48 ± 0.23 | -0.645 ± 0.17
11 | CAUCAGCAAUAUUACGACUA | -1.26 ± 0.13 | -0.0399 ± 0.13
12 | CAUCAGCAAUAUUACGAGCC | -3.22 ± 0.31 | -2.33 ± 0.41
13 | CAUCAGCAAUAUUACGAGGA | -3.13 ± 0.23 | -2.6 ± 0.19
14 | CAUCAGCAAUAUUACGAUGC | -4.35 ± 0.36 | -2.76 ± 0.33
15 | CAUCAGCAAUAUUACGCACC | -3.56 ± 0.14 | -1.61 ± 0.12
16 | CAUCAGCAAUAUUACGCAGC | -3.35 ± 0.14 | -1.29 ± 0.12
17 | CAUCAGCAAUAUUACGCCCU | -2.55 ± 0.36 | -1.54 ± 0.43
18 | CAUCAGCAAUAUUACGCCGG | -0.415 ± 0.086 | -0.327 ± 0.11
19 | CAUCAGCAAUAUUACGCGGU | -3.35 ± 0.18 | -2.39 ± 0.22
20 | CAUCAGCAAUAUUACGCUCG | -0.495 ± 0.064 | -0.134 ± 0.079
21 | CAUCAGCAAUAUUACGCUGC | – | -2.61 ± 0.3
22 | CAUCAGCAAUAUUACGCUUU | -2.23 ± 0.097 | -1.34 ± 0.1
23 | CAUCAGCAAUAUUACGGCCU | -3.29 ± 0.16 | -2.15 ± 0.16
24 | CAUCAGCAAUAUUACGGGGC | -4 ± 0.16 | -2.01 ± 0.15
25 | CAUCAGCAAUAUUACGUAUG | -2.16 ± 0.14 | -1.43 ± 0.15

Row | Sequence | self-splicing fitness (ln) (30 °C) | self-splicing fitness (ln) (37 °C)
26 | CAUCAGCAAUAUUACGUCCA | -1.71 ± 0.12 | -2.92 ± 0.22
27 | CAUCAGCAAUAUUACGUCGC | -3.05 ± 0.18 | -2.11 ± 0.23
28 | CAUCAGCAAUAUUACGUCUG | -0.675 ± 0.047 | 0.264 ± 0.059
29 | CAUCAGCAAUAUUACGUGCA | -3.14 ± 0.21 | -1.97 ± 0.2
30 | CAUCAGCAAUAUUACGUGCG | -0.149 ± 0.056 | 0.355 ± 0.075
31 | CAUCAGCAAUAUUACGUUAG | -0.472 ± 0.073 | -0.526 ± 0.08
32 | CAUGAGCAAUAUUACGAAUU | -4.16 ± 0.35 | -2.49 ± 0.23
33 | CAUGAGCAAUAUUACGCAGC | -3.08 ± 0.38 | -2.32 ± 0.34
34 | CAUGAGCAAUAUUACGCAUC | -2.04 ± 0.31 | -2.41 ± 0.33
35 | CAUGAGCAAUAUUACGCCCA | -1.49 ± 0.42 | –
36 | CAUGAGCAAUAUUACGCCGU | -3.93 ± 0.37 | -3.36 ± 0.26
37 | CAUGAGCAAUAUUACGCGAG | -2.19 ± 0.14 | -1.47 ± 0.18
38 | CAUGAGCAAUAUUACGCGUC | – | -2.76 ± 0.31
39 | CAUGAGCAAUAUUACGCUAU | -3.46 ± 0.3 | -1.99 ± 0.21
40 | CAUGAGCAAUAUUACGGAGA | -3.91 ± 0.35 | -2.58 ± 0.48
41 | CAUGAGCAAUAUUACGGAUU | -3.76 ± 0.21 | -2.52 ± 0.26
42 | CAUGAGCAAUAUUACGGCGG | -0.18 ± 0.094 | -0.278 ± 0.14
43 | CAUGAGCAAUAUUACGGCGU | -3.61 ± 0.47 | -1.97 ± 0.34
44 | CAUGAGCAAUAUUACGGGAA | – | -1.66 ± 0.25
45 | CAUGAGCAAUAUUACGGGCC | – | -1.98 ± 0.36
46 | CAUGAGCAAUAUUACGGGCU | -3.53 ± 0.16 | -2.11 ± 0.15
47 | CAUGAGCAAUAUUACGGUAA | – | -2.65 ± 0.34
48 | CAUGAGCAAUAUUACGUACU | -3.25 ± 0.18 | -2.59 ± 0.18
49 | CAUGAGCAAUAUUACGUCAU | -3.61 ± 0.24 | -1.24 ± 0.22
50 | CAUGAGCAAUAUUACGUCUC | -2.83 ± 0.22 | –

Row | Sequence | self-splicing fitness (ln) (30 °C) | self-splicing fitness (ln) (37 °C)
51 | CAUGAGCAAUAUUACGUGUC | -2.98 ± 0.17 | -1.82 ± 0.22
52 | CAUUAGCAAUAUUACGAAGG | -1.09 ± 0.089 | -0.624 ± 0.099
53 | CAUUAGCAAUAUUACGACAA | -2.37 ± 0.24 | -2.09 ± 0.32
54 | CAUUAGCAAUAUUACGACCA | -2.56 ± 0.42 | -1.67 ± 0.37
55 | CAUUAGCAAUAUUACGAGAC | -3.15 ± 0.46 | -1.57 ± 0.42
56 | CAUUAGCAAUAUUACGAGAU | -4.04 ± 0.46 | -2.9 ± 0.24
57 | CAUUAGCAAUAUUACGAGCG | 0.0198 ± 0.086 | 0.256 ± 0.098
58 | CAUUAGCAAUAUUACGAGGG | -3.1 ± 0.18 | -2 ± 0.21
59 | CAUUAGCAAUAUUACGAGGU | -3.01 ± 0.27 | -2.66 ± 0.3
60 | CAUUAGCAAUAUUACGAUGG | -0.461 ± 0.076 | 0.0641 ± 0.083
61 | CAUUAGCAAUAUUACGAUUA | -1.47 ± 0.085 | -0.981 ± 0.081
62 | CAUUAGCAAUAUUACGCAAC | -2.14 ± 0.46 | -2.51 ± 0.3
63 | CAUUAGCAAUAUUACGCCGG | -0.963 ± 0.15 | 0.612 ± 0.24
64 | CAUUAGCAAUAUUACGCCUU | -3.03 ± 0.36 | -1.84 ± 0.21
65 | CAUUAGCAAUAUUACGCGCG | 0.0331 ± 0.12 | 0.0206 ± 0.13
66 | CAUUAGCAAUAUUACGCGGC | -3.98 ± 0.28 | -1.8 ± 0.28
67 | CAUUAGCAAUAUUACGCUAA | -2.7 ± 0.32 | –
68 | CAUUAGCAAUAUUACGCUAG | -2.75 ± 0.28 | -0.852 ± 0.2
69 | CAUUAGCAAUAUUACGCUAU | -3.47 ± 0.3 | -2.99 ± 0.28
70 | CAUUAGCAAUAUUACGCUCA | -1.21 ± 0.07 | -0.215 ± 0.073
71 | CAUUAGCAAUAUUACGCUCG | -0.328 ± 0.11 | 0.302 ± 0.13
72 | CAUUAGCAAUAUUACGGAAU | -2.87 ± 0.29 | -2.61 ± 0.31
73 | CAUUAGCAAUAUUACGGACG | -0.114 ± 0.086 | 0.364 ± 0.11
74 | CAUUAGCAAUAUUACGGCAC | -4.19 ± 0.46 | -1.1 ± 0.17
75 | CAUUAGCAAUAUUACGGCGC | -2.01 ± 0.3 | -0.0545 ± 0.24

Row | Sequence | self-splicing fitness (ln) (30 °C) | self-splicing fitness (ln) (37 °C)
76 | CAUUAGCAAUAUUACGGGUA | -1.06 ± 0.11 | -0.972 ± 0.13
77 | CAUUAGCAAUAUUACGGUAU | – | -0.876 ± 0.12
78 | CAUUAGCAAUAUUACGGUUU | -3.82 ± 0.2 | -2.68 ± 0.2
79 | CAUUAGCAAUAUUACGUAGG | -0.646 ± 0.08 | -0.199 ± 0.11
80 | CAUUAGCAAUAUUACGUAUG | -3.57 ± 0.2 | -2.9 ± 0.3
81 | CAUUAGCAAUAUUACGUAUU | -4.04 ± 0.4 | -2.37 ± 0.27
82 | CAUUAGCAAUAUUACGUCCA | -3.34 ± 0.32 | -1.3 ± 0.28
83 | CAUUAGCAAUAUUACGUCUU | -3.25 ± 0.27 | -2.33 ± 0.21
84 | CAUUAGCAAUAUUACGUGUA | -2.78 ± 0.18 | -1.57 ± 0.11
85 | CAUUAGCAAUAUUACGUGUU | -3.38 ± 0.18 | -2.69 ± 0.2
86 | CAUUAGCAAUAUUACGUUAC | -3.48 ± 0.2 | -2.17 ± 0.25
87 | CCAAAGCAAUAUUACGAAGC | -3.15 ± 0.36 | –
88 | CCAAAGCAAUAUUACGACAC | – | -3.02 ± 0.25
89 | CCAAAGCAAUAUUACGACGA | -3.11 ± 0.29 | -0.0538 ± 0.26
90 | CCAAAGCAAUAUUACGAGGA | -3.54 ± 0.17 | -2.79 ± 0.18
91 | CCAAAGCAAUAUUACGAGGC | -4.23 ± 0.27 | -2.46 ± 0.22
92 | CCAAAGCAAUAUUACGCACG | -0.44 ± 0.087 | -0.583 ± 0.11
93 | CCAAAGCAAUAUUACGCCGA | -2.83 ± 0.18 | -3.4 ± 0.23
94 | CCAAAGCAAUAUUACGCGCU | -3.57 ± 0.15 | -3.13 ± 0.17
95 | CCAAAGCAAUAUUACGCUAU | -3.7 ± 0.19 | -2.39 ± 0.23
96 | CCAAAGCAAUAUUACGCUCA | -3.2 ± 0.14 | -2.2 ± 0.16
97 | CCAAAGCAAUAUUACGGAUG | -1.44 ± 0.069 | -1.48 ± 0.1
98 | CCAAAGCAAUAUUACGUAAG | -0.334 ± 0.049 | 0.53 ± 0.071
99 | CCACAGCAAUAUUACGACUU | -4 ± 0.28 | -2.81 ± 0.27
